In patent US10866245B2, “Methods for dye selection for protein melt temperature determinations” (LIFE TECHNOLOGIES CORPORATION, priority 2013, dated 2020):

What was measured:
T4 DNA ligase = target: T1, T4 DNA ligase (Enterobacteria phage T4, UniProt P00970); assay: Protein Thermal Shift assay of T4 DNA ligase with and without ligand ATP (SYPRO Orange); format: binding; conditions: derivative curve FIG. 2B
T1 sequence (P00970 1-487): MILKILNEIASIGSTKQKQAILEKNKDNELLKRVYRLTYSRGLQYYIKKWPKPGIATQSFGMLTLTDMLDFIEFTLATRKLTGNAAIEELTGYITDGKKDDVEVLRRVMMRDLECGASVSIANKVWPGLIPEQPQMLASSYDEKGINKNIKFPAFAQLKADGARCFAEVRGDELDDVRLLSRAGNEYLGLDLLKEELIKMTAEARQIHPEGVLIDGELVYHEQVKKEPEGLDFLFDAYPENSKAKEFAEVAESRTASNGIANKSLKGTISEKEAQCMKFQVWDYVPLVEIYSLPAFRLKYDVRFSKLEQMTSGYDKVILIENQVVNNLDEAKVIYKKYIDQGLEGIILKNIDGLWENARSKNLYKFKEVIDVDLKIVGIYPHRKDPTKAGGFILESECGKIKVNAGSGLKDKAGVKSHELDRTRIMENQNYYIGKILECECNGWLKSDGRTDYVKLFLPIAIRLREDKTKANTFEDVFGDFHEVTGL
Experimental: (§1) Applied Biosystems® Real-time PCR Systems instruments, as described above, are used to plot the fluorescence data throughout the thermal melt, generating a fluorescence profile specific to the protein of interest within the test buffer environment or in the presence of a test ligand. A MATLAB based TmTool™ which utilizes the Boltzmann equation to calculate the Tm of the protein from the fluorescence melt plot is used to process the raw data recorded with the instrument.
T4 DNA ligase is prepared in phosphate buffered saline (PBS; 137 mM NaCl, 10 mM Phosphate, 2.7 mM KCl, pH 7.4) and 5% glycerol at a concentration of 3 mg/ml of protein. T4 DNA ligase samples are prepared using SYPRO® Orange with and without ligand (ATP at 10 mM concentration). SYPRO® Orange dye solution is prepared as a 1000× stock from a 5000× stock solution in DMSO, then diluted to a 10× stock solution using 100 mM Potassium phosphate buffer. The SYPRO® Orange-protein reaction mixture is prepared by using 1 μl of the protein solution, 2 μl of the 10× dye solution, and 17 μl of the PTS buffer. Quadruplicate samples for each protein-dye mixture are run on a ViiA™ 7 qPCR instrument (Life Technologies, Inc.) and analysis using Protein Thermal Shift™ software (Life Technologies Inc.). […]

[1] = Protein Thermal Shift buffer and salt screen of RecA (SYPRO Orange, Boltzmann fit); format: physicochemical
Description: as §1
FIGS. 3A through 3C illustrate the method of calculating Tm from a typical PTS. The MATLAB based TmTool™ calculates the Tm of the protein from the shape of the fluorescence plot in FIG. 3a. The thermo-stability of RecA in different buffer and salt conditions is compared and the region of interest is fitted to the Boltzmann equation. RecA is prepared in phosphate buffered saline (PBS; 137 mM NaCl, 10 mM Phosphate, 2.7 mM KCl, pH 7.4) and 5% glycerol at a concentration of 3 mg/ml of protein. SYPRO® Orange dye solution is prepared as a 1000× stock from a 5000× stock solution in DMSO, then diluted to a 10× stock solution with PTS buffer.
The SYPRO® Orange-protein Protein Thermal Shift Assay reaction mixture is prepared by using 1 μl of the protein solution, 2 μl of the 10× dye solution, and 17 μl of each of experimental buffer solutions A1-A4, B1-B4, C1-C4, and D1-D4. Samples for each protein-dye mixture are run on a ViiA™ 7 qPCR instrument (Life Technologies, Inc.) and analysis using Protein Thermal Shift™ software (Life Technologies Inc.). The run time conditions are: a temperature hold at 20° C. for one minute followed by a thermal ramp of 0.05° C. with continuous data collection to 95° C., followed by a 1 minute hold at the final temperature.
The Applied Biosystems' TmTool™ calculator provides the protein Tm calculated via Boltzmann curve-fitting. […] Thus, the methods can be used to identify salt and pH concentrations best suited for stability of a protein as well as conditions for protein storage, crystallography, etc. The Boltzmann equation used is: […]

[2] = Protein Thermal Shift of RecA with dye formulation 7 versus SYPRO Orange alone; format: physicochemical
Experimental: The assays are run on a ViiA™7 qPCR instrument (Life Technologies, Inc.) and analyzed using Protein Thermal Shift™ software (Life Technologies Inc.). The run time conditions are: a temperature hold at 20° C. for one minute followed by a thermal ramp of 0.05° C. with continuous data collection to 95° C., followed by a 1 minute hold at the final temperature.
PTS is performed on RecA, using conditions as is discussed in Example 6. 1.4 μl of each of the 100× dye formulations is added according to Table 9. PTS reproducibility is improved with dye formulation 7 (SYPRO® Orange, SYPRO® Red and SYPRO® Tangerine) (FIGS. 13A and 13B) using an X5-M5 filter relative to SYPRO® Orange alone using an X4-M4 filter. In FIG. 13A, using the mixture of dyes (formulation 7), the two melt curves shown are for RecA in E3 and C3 buffer, respectively.

Human Decorin Protein = target: T2, Human Decorin Protein (Homo sapiens, UniProt P07585); assay: Protein Thermal Shift of human Decorin, anti-Decorin antibody and their mixture; format: binding; conditions: isolated protein or isolated antibody
T2 construct: purchased R&D Systems 143-DE
Experimental: T4 DNA ligase is prepared in phosphate buffered saline (PBS; 137 mM NaCl, 10 mM Phosphate, 2.7 mM KCl, pH 7.4) and 5% glycerol at a concentration of 3 mg/ml of protein. T4 DNA ligase samples are prepared using SYPRO® Orange with and without ligand (ATP at 10 mM concentration). SYPRO® Orange dye solution is prepared as a 1000× stock from a 5000× stock solution in DMSO, then diluted to a 10× stock solution using 100 mM Potassium phosphate buffer. The SYPRO® Orange-protein reaction mixture is prepared by using 1 μl of the protein solution, 2 μl of the 10× dye solution, and 17 μl of the PTS buffer. Quadruplicate samples for each protein-dye mixture are run on a ViiA™ 7 qPCR instrument (Life Technologies, Inc.) and analysis using Protein Thermal Shift™ software (Life Technologies Inc.). The run time conditions are: a temperature hold at 20° C. for one minute followed by a thermal ramp of 0.05° C. with continuous data collection to 95° C., followed by a 1 minute hold at the final temperature.
An assay was performed to identify whether PTS can be used to analyze binding of an antibody to its ligand. The method is performed using buffer and reaction conditions as described in EXAMPLE 1.

With `Nc1ncnc2c1ncn2[C@@H]1O[C@H](COP(=O)(O)OP(=O)(O)OP(=O)(O)O)[C@@H](O)[C@H]1O` [ATP, reference compound] the “Tm of complexed T4 DNA Ligase” value (T4 DNA ligase; with ligand ATP at 10 mM) was “about 48 °C”.

With RecA: RecA DNA repair protein the “Tm in ° C.” value ([1]; Buffer A1: 100 mM Sodium Citrate, pH 5.5, 0 mM NaCl) was 42.2 °C, the “Tm in ° C.” value ([1]; Buffer A2: 100 mM Sodium Citrate, pH 5.5, 50 mM NaCl) was 41.7 °C and the “Tm in ° C.” value ([1]; Buffer A3: 100 mM Sodium Citrate, pH 5.5, 100 mM NaCl) was 42.1 °C. For the same molecule, the “Tm in ° C.” value ([1]; Buffer A4: 100 mM Sodium Citrate, pH 5.5, 150 mM NaCl) was 41.6 °C, the “Tm in ° C.” value ([1]; Buffer B1: 100 mM Potassium Phosphate, pH 6.0, 0 mM NaCl) was 41.8 °C and the “Tm in ° C.” value ([1]; Buffer B2: 100 mM Potassium Phosphate, pH 6.0, 50 mM NaCl) was 41.2 °C. For the same molecule, the “Tm in ° C.” value ([1]; Buffer B3: 100 mM Potassium Phosphate, pH 6.0, 100 mM NaCl) was 41.2 °C, the “Tm in ° C.” value ([1]; Buffer B4: 100 mM Potassium Phosphate, pH 6.0, 150 mM NaCl) was 41.1 °C and the “Tm in ° C.” value ([1]; Buffer C1: 100 mM Potassium Phosphate, pH 7.0, 0 mM NaCl) was 46.8 °C. For the same molecule, the “Tm in ° C.” value ([1]; Buffer C2: 100 mM Potassium Phosphate, pH 7.0, 50 mM NaCl) was 46.6 °C, the “Tm in ° C.” value ([1]; Buffer C3: 100 mM Potassium Phosphate, pH 7.0, 100 mM NaCl) was 46 °C and the “Tm in ° C.” value ([1]; Buffer C4: 100 mM Potassium Phosphate, pH 7.0, 150 mM NaCl) was 45.7 °C. The Tm ([2]; Buffer C3, SYPRO Orange alone, X4-M4 filter) was 53.3 °C, the Tm ([2]; Buffer C3, dye formulation 7, X5-M5 filter) was 49.5 °C and the Tm ([2]; Buffer E3, SYPRO Orange alone, X4-M4 filter) was 48.1 °C. The Tm ([2]; Buffer E3, dye formulation 7, X5-M5 filter) was 45.7 °C.

B1: Human Decorin: Human Decorin Protein, P/N 143-DE (R&D Systems) (protein, UniProt P07585 31-359, looked up)
Decorin: DEASGIGPEVPDDRDFEPSLGPVCPFRCQCHLRVVQCSDLGLDKVPKDLPPDTTLLDLQNNKITEIKDGDFKNLKNLHALILVNNKISKVSPGAFTPLVKLERLYLSKNQLKELPEKMPKTLQELRAHENEITKVRKVTFNGLNQMIVIELGTNPLKSSGIENGAFQGMKKLSYIRIADTNITSIPQGLPPSLTELHLDGNKISRVDAASLKGLNNLAKLGLSFNSISAVDNGSLANTPHLRELHLDNNKLTRVPGGLAEHKYIQVVYLHNNNISVVGSSDFCPPGHNTKKASYSGVSLFSNPVQYWEIQPSTFRCVYVRSAIQLGNYK
For B1, the Tm (Human Decorin Protein) was 47.7 °C.

B2: T4 DNA Ligase: T4 DNA ligase enzyme prepared in PBS and 5% glycerol at 3 mg/ml (protein, UniProt P00970 1-487, looked up)
DNA ligase: T1 sequence (P00970 1-487)
With B2 the “Tm of uncomplexed T4 DNA Ligase” value (T4 DNA ligase; no ligand) was “about 42 °C”.
